From the supplement of paper PMC10567573

B1: ZBED3 (parent)
chain: QARLRDVSRREGALGWAPAAPPPL
B2: PDZK1 (parent)
chain: RETASLKLLPHQPRIVEMKKGSNG
B3: SMG5 (parent)
chain: TRKLSPGKKRCKDIKRLLVNFMYL

Variants of: B1
Assay: protein stability index of a GFP-peptide fusion (GPS, HEK-293T) (PSI 1-6); higher = more stable
Conditions: c terminus: a fixed tail appended
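Also: lentivirally expressed fusions sorted by FACS into six bins by GFP to DsRed ratio, PSI derived from sequencing read proportions per bin multiplied by bin number.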

Variant	protein stability index
QARLRDVSRREGALGWAPAAPPEL [P23E]	3.12
QARLRDVSRREGALGWAPAAPPQL [P23Q]	3.5
QARLRDVSRREGALGWAPAAPPNL [P23N]	3.18
QARLRDVSRREGALGWAPAAPPKL [P23K]	3.33
QARLRDVSRREGALGWAPAAPPDL [P23D]	3.81
QARLRDVSRREGALGWAPAAPPYL [P23Y]	2.06
QARLRDVSRREGALGWAPAAPPFL [P23F]	2.79
QARLRDVSRREGALGWAPAAPPAL [P23A]	3.38
QARLRDVSRREGALGWAPAAPPML [P23M]	2.86
QARLRDVSRREGALGWAPAAPPCL [P23C]	3.19
QARLRDVSRREGALGWAPAAPPSL [P23S]	3.63
QARLRDVSRREGALGWAPAAPPIL [P23I]	2.36
QARLRDVSRREGALGWAPAAPPVL [P23V]	2.79
QARLRDVSRREGALGWAPAAPPGL [P23G]	3.73
QARLRDVSRREGALGWAPAAPPWL [P23W]	2.08
QARLRDVSRREGALGWAPAAPPRL [P23R]	3.33
QARLRDVSRREGALGWAPAAPPLL [P23L]	2.9
QARLRDVSRREGALGWAPAAPQPL [P22Q]	3.29
QARLRDVSRREGALGWAPAAPIPL [P22I]	2.74
QARLRDVSRREGALGWAPAAPKPL [P22K]	3.62
QARLRDVSRREGALGWAPAAPYPL [P22Y]	2.37
QARLRDVSRREGALGWAPAAPCPL [P22C]	2.29
QARLRDVSRREGALGWAPAAPAPL [P22A]	3.65
QARLRDVSRREGALGWAPAAPTPL [P22T]	3.11
QARLRDVSRREGALGWAPAAPDPL [P22D]	3.81
QARLRDVSRREGALGWAPAAPLPL [P22L]	3.46
QARLRDVSRREGALGWAPAAPEPL [P22E]	4.2
QARLRDVSRREGALGWAPAAPWPL [P22W]	2.62

Variant	protein stability index
QARLRDVSRREGALGWAPAAPMPL [P22M]	3.16
QARLRDVSRREGALGWAPAAPRPL [P22R]	3.31
QARLRDVSRREGALGWAPAAPSPL [P22S]	3.2
QARLRDVSRREGALGWAPAAPHPL [P22H]	3.45
QARLRDVSRREGALGWAPAAPVPL [P22V]	2.46
QARLRDVSRREGALGWAPAAPNPL [P22N]	3.26
QARLRDVSRREGALGWAPAAPFPL [P22F]	2.89
QARLRDVSRREGALGWAPAAPGPL [P22G]	3.34
QARLRDVSRREGALGWAEAAPPPL [P18E]	3.56
QARLRDVSRREGALGWAPAWPPPL [A20W]	1.96
QARLRDVSRREGALGWAPAALPPL [P21L]	2.67
QARLRDVSRREGALGWAPAAAPPL [P21A]	3.1
QARLRDVSRREGALGWAPAAKPPL [P21K]	3.55
QARLRDVSRREGALGWAPAAGPPL [P21G]	3.02
QARLRDVSRREGALGWAPAAYPPL [P21Y]	2.02
QARLRDVSRREGALGWAPAAIPPL [P21I]	2.84
QARLRDVSRREGALGWAPAAQPPL [P21Q]	3.22
QARLRDVSRREGALGWAPAARPPL [P21R]	3.49
QARLRDVSRREGALGWAPAANPPL [P21N]	2.84
QARLRDVSRREGALGWAPAACPPL [P21C]	2.31
QARLRDVSRREGALGWAPAAWPPL [P21W]	2.12
QARLRDVSRREGALGWAPAASPPL [P21S]	3.5
QARLRDVSRREGALGWAPAADPPL [P21D]	3.96
QARLRDVSRREGALGWAPAAEPPL [P21E]	3.87
QARLRDVSRREGALGWAPAAVPPL [P21V]	3.27
QARLRDVSRREGALGWAPAAMPPL [P21M]	3.2
QARLRDVSRREGALGWAPAAFPPL [P21F]	2.48

Variants of: B2
Assay: as above
Conditions: c terminus: a fixed tail appended

Variant	protein stability index
RETASLKLLPHQPRIVEMKKGSNA [G24A]	4.52
RETASLKLLPHQPRIVEMKKGSNQ [G24Q]	4.58
RETASLKLLPHQPRIVEMKKGSNV [G24V]	4.15
RETASLKLLPHQPRIVEMKKGSND [G24D]	5
RETASLKLLPHQPRIVEMKKGSNN [G24N]	4.49
RETASLKLLPHQPRIVEMKKGSNY [G24Y]	3.56
RETASLKLLPHQPRIVEMKKGSNC [G24C]	4.01
RETASLKLLPHQPRIVEMKKGSNK [G24K]	4.76
RETASLKLLPHQPRIVEMKKGSNE [G24E]	4.82
RETASLKLLPHQPRIVEMKKGSNR [G24R]	4.03
RETASLKLLPHQPRIVEMKKGSNM [G24M]	4.17
RETASLKLLPHQPRIVEMKKGSNW [G24W]	3.88
RETASLKLLPHQPRIVEMKKGSNT [G24T]	4.41
RETASLKLLPHQPRIVEMKKGSNS [G24S]	3.99
RETASLKLLPHQPRIVEMKKGSNL [G24L]	3.53
RETASLKLLPHQPRIVEMKKGSNP [G24P]	4.01
RETASLKLLPHQPRIVEMKKGSNH [G24H]	4.17
RETASLKLLPHQPRIVEMKKGSNF [G24F]	3.05
RETASLKLLPHQPRIVEMKKGSIG [N23I]	3.24
RETASLKLLPHQPRIVEMKKGSEG [N23E]	4.45
RETASLKLLPHQPRIVEMKKGSKG [N23K]	4.18

Variant	protein stability index
RETASLKLLPHQPRIVEMKKGSMG [N23M]	3.24
RETASLKLLPHQPRIVEMKKGSPG [N23P]	4.22
RETASLKLLPHQPRIVEMKKGSWG [N23W]	3.12
RETASLKLLPHQPRIVEMKKGSQG [N23Q]	4.32
RETASLKLLPHQPRIVEMKKGSLG [N23L]	3.11
RETASLKLLPHQPRIVEMKKGSYG [N23Y]	3.3
RETASLKLLPHQPRIVEMKKGSVG [N23V]	3.72
RETASLKLLPHQPRIVEMKKGSSG [N23S]	3.14
RETASLKLLPHQPRIVEMKKGSAG [N23A]	3.62
RETASLKLLPHQPRIVEMKKGSRG [N23R]	4.48
RETASLKLLPHQPRIVEMKKGSDG [N23D]	4.24
RETASLKLLPHQPRIVEMKKGSGG [N23G]	3.62
RETASLKLLPHQPRIVEMKKGSCG [N23C]	3.25
RETASLKLLPHQPRIVEMKKGSTG [N23T]	3.52
RETASLKLLPHQPRIVEMKKGYNG [S22Y]	2.61
RETASLKLLPHQPRIVEMKKGPNG [S22P]	3.33
RETASLKLLPHQPRIVEMKKGTNG [S22T]	3.51
RETASLKLLPHQPRIVEMKKGNNG [S22N]	4.09
RETASLKLLPHQPRIVEMKKGVNG [S22V]	4
RETASLKLLPHQPRIVEMKKGQNG [S22Q]	3.88

Variants of: B3
Assay: as above
Conditions: c terminus: a fixed tail appended

Variant	protein stability index
SRKLSPGKKRCKDIKRLLVNFMYL [T1S]	3.96
ARKLSPGKKRCKDIKRLLVNFMYL [T1A]	1.51
IRKLSPGKKRCKDIKRLLVNFMYL [T1I]	1.95
CRKLSPGKKRCKDIKRLLVNFMYL [T1C]	2.22
ERKLSPGKKRCKDIKRLLVNFMYL [T1E]	2.17
GRKLSPGKKRCKDIKRLLVNFMYL [T1G]	1.92
RRKLSPGKKRCKDIKRLLVNFMYL [T1R]	4.28
WRKLSPGKKRCKDIKRLLVNFMYL [T1W]	1.45
HRKLSPGKKRCKDIKRLLVNFMYL [T1H]	3.62
MRKLSPGKKRCKDIKRLLVNFMYL [T1M]	2.88
VRKLSPGKKRCKDIKRLLVNFMYL [T1V]	3.92
QRKLSPGKKRCKDIKRLLVNFMYL [T1Q]	2.7
TFKLSPGKKRCKDIKRLLVNFMYL [R2F]	3.38
TNKLSPGKKRCKDIKRLLVNFMYL [R2N]	1.94
TQKLSPGKKRCKDIKRLLVNFMYL [R2Q]	1.59
TTKLSPGKKRCKDIKRLLVNFMYL [R2T]	2.24
TYKLSPGKKRCKDIKRLLVNFMYL [R2Y]	4.16
TSKLSPGKKRCKDIKRLLVNFMYL [R2S]	2.78
TCKLSPGKKRCKDIKRLLVNFMYL [R2C]	2.19
TVKLSPGKKRCKDIKRLLVNFMYL [R2V]	2.98
TEKLSPGKKRCKDIKRLLVNFMYL [R2E]	1.04
TPKLSPGKKRCKDIKRLLVNFMYL [R2P]	2.76
THKLSPGKKRCKDIKRLLVNFMYL [R2H]	1.38

Variant	protein stability index
TIKLSPGKKRCKDIKRLLVNFMYL [R2I]	3.09
TMKLSPGKKRCKDIKRLLVNFMYL [R2M]	3
TAKLSPGKKRCKDIKRLLVNFMYL [R2A]	2.29
TRKLSQGKKRCKDIKRLLVNFMYL [P6Q]	3.24
TRKLSHGKKRCKDIKRLLVNFMYL [P6H]	2.4
TRKLSTGKKRCKDIKRLLVNFMYL [P6T]	2.59
TRKLSGGKKRCKDIKRLLVNFMYL [P6G]	2.69
TRKLSVGKKRCKDIKRLLVNFMYL [P6V]	3.45
TRKLSYGKKRCKDIKRLLVNFMYL [P6Y]	3.31
TRKLSLGKKRCKDIKRLLVNFMYL [P6L]	2.45
TRKLSSGKKRCKDIKRLLVNFMYL [P6S]	2.1
TRKLSDGKKRCKDIKRLLVNFMYL [P6D]	2.55
TRKLSNGKKRCKDIKRLLVNFMYL [P6N]	1.9
TRFLSPGKKRCKDIKRLLVNFMYL [K3F]	2.44
TRILSPGKKRCKDIKRLLVNFMYL [K3I]	2.34
TRELSPGKKRCKDIKRLLVNFMYL [K3E]	2.41
TRTLSPGKKRCKDIKRLLVNFMYL [K3T]	1.66
TRSLSPGKKRCKDIKRLLVNFMYL [K3S]	1.59
TRGLSPGKKRCKDIKRLLVNFMYL [K3G]	3.74
TRMLSPGKKRCKDIKRLLVNFMYL [K3M]	2.94
TRALSPGKKRCKDIKRLLVNFMYL [K3A]	2.18
TRCLSPGKKRCKDIKRLLVNFMYL [K3C]	2.31
TRVLSPGKKRCKDIKRLLVNFMYL [K3V]	3.52

Variant	protein stability index
TRWLSPGKKRCKDIKRLLVNFMYL [K3W]	1.86
TRNLSPGKKRCKDIKRLLVNFMYL [K3N]	2.16
TRLLSPGKKRCKDIKRLLVNFMYL [K3L]	1.85
TRPLSPGKKRCKDIKRLLVNFMYL [K3P]	2.52
TRKLSPFKKRCKDIKRLLVNFMYL [G7F]	2.24
TRKLSPVKKRCKDIKRLLVNFMYL [G7V]	2.47
TRKLSPTKKRCKDIKRLLVNFMYL [G7T]	2.22
TRKLSPSKKRCKDIKRLLVNFMYL [G7S]	2.17
TRKLSPQKKRCKDIKRLLVNFMYL [G7Q]	1.86
TRKLSPLKKRCKDIKRLLVNFMYL [G7L]	4.07
TRKLSPKKKRCKDIKRLLVNFMYL [G7K]	3.32
TRKLSPAKKRCKDIKRLLVNFMYL [G7A]	2.87
TRKLSPMKKRCKDIKRLLVNFMYL [G7M]	3.1
TRKLSPRKKRCKDIKRLLVNFMYL [G7R]	2.47
TRKLSPIKKRCKDIKRLLVNFMYL [G7I]	2.87
TRKLSPPKKRCKDIKRLLVNFMYL [G7P]	1.96
TRKLSPNKKRCKDIKRLLVNFMYL [G7N]	2.08
TRKLSPEKKRCKDIKRLLVNFMYL [G7E]	1.97
TRKRSPGKKRCKDIKRLLVNFMYL [L4R]	1.15
TRKSSPGKKRCKDIKRLLVNFMYL [L4S]	1.47
TRKGSPGKKRCKDIKRLLVNFMYL [L4G]	1.36
TRKHSPGKKRCKDIKRLLVNFMYL [L4H]	2.64
TRKYSPGKKRCKDIKRLLVNFMYL [L4Y]	2.63

Variant	protein stability index
TRKASPGKKRCKDIKRLLVNFMYL [L4A]	1.76
TRKCSPGKKRCKDIKRLLVNFMYL [L4C]	2.54
TRKDSPGKKRCKDIKRLLVNFMYL [L4D]	1.33
TRKKSPGKKRCKDIKRLLVNFMYL [L4K]	2.07
TRKQSPGKKRCKDIKRLLVNFMYL [L4Q]	2.06
TRKNSPGKKRCKDIKRLLVNFMYL [L4N]	1.22
TRKPSPGKKRCKDIKRLLVNFMYL [L4P]	2.58
TRKISPGKKRCKDIKRLLVNFMYL [L4I]	3.12
TRKTSPGKKRCKDIKRLLVNFMYL [L4T]	1.62
TRKLSPGLKRCKDIKRLLVNFMYL [K8L]	2.75
TRKLSPGHKRCKDIKRLLVNFMYL [K8H]	3.49
TRKLSPGCKRCKDIKRLLVNFMYL [K8C]	3.19
TRKLSPGGKRCKDIKRLLVNFMYL [K8G]	1.05
TRKLSPGFKRCKDIKRLLVNFMYL [K8F]	4.35
TRKLSPGEKRCKDIKRLLVNFMYL [K8E]	3.52
TRKLKPGKKRCKDIKRLLVNFMYL [S5K]	4.05
TRKLTPGKKRCKDIKRLLVNFMYL [S5T]	1.02
TRKLGPGKKRCKDIKRLLVNFMYL [S5G]	2.7
TRKLPPGKKRCKDIKRLLVNFMYL [S5P]	2.54
TRKLFPGKKRCKDIKRLLVNFMYL [S5F]	4.07
TRKLLPGKKRCKDIKRLLVNFMYL [S5L]	1.55
TRKLQPGKKRCKDIKRLLVNFMYL [S5Q]	2.62
TRKLDPGKKRCKDIKRLLVNFMYL [S5D]	2.41
